Holding throughout (settings): both partners purified
Assay [1] has as its target T1, Tea2-Alexa647 (S. pombe, UniProt Q1MTQ1 1-628, Alexa Fluor 647 (NHS ester labelling, sites not stated)).
T1 construct: Tea2 (kinesin-7 homologue), Schizosaccharomyces pombe, full length; also called Tea2-647; source: bacterially expressed, purified (Talon resin, eluted with 3C protease, SEC), labelled with Alexa Fluor 647 NHS ester; not shown: Z-tag, N-terminal, cleaved
T1 sequence (looked up): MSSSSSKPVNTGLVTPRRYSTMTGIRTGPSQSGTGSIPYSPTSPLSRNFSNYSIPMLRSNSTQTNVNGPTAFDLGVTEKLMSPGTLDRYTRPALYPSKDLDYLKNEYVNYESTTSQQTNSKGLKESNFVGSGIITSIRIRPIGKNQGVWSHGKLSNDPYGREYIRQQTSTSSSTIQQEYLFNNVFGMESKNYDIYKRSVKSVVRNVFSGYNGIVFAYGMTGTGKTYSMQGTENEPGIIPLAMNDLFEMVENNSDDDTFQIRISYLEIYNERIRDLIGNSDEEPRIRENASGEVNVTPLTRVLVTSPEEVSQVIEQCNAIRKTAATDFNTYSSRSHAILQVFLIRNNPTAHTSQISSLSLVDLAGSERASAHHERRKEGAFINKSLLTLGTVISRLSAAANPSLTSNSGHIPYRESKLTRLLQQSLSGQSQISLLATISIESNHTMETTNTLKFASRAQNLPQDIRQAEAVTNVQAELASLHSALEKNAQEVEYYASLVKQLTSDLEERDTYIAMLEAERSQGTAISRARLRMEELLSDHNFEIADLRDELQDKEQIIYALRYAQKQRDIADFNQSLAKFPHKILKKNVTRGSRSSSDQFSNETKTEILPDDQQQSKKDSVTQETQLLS
As to the kind of experiment: scaffold-client recruitment into condensates (spinning disc confocal microscopy); scaffold condensates of 200 nM FL Mal3, 215 nM Tip1 (each tagged with 2 nM FL Mal3:mCherry) or Tea2-Alexa647, with 2 nM Mal3:GFP construct as client; 1x MRB80, 50 mM KCl, 10% PEG6k, 2 mM ATP, 1 mM GTP, 2 mM dithiothreitol, 0.5 mM β-mercaptoethanol; imaged about 30 min after mixing.

In assay [2] the target is T2, Full-length S. pombe Mal3, unlabelled (S. pombe, UniProt Q10113 1-308).
T2 construct: Mal3 (EB homologue), Schizosaccharomyces pombe, full length; Scaffold (200 nM) in the scaffold-client assay; also the Mal3 of the cryo-ET samples; also called FL-Mal3; FLMal3; source: E. coli ER2566, purified (Talon resin, eluted with 3C protease, SEC); not shown: His8, N-terminal, cleaved
T2 sequence (looked up): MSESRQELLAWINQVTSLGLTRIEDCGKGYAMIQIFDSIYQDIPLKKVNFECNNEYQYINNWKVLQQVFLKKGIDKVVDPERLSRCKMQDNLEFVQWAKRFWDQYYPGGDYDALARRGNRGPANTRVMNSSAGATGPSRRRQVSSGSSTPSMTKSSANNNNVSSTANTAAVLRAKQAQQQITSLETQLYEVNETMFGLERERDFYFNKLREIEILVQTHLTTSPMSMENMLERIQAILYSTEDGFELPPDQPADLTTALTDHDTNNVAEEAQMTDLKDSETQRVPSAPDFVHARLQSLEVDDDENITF
Described as above.

The target of assay [3] is T1, Tea2-Alexa647. As to the kind of experiment: TIRF microscopy of purified fluorescent proteins on microtubules; plus-end-tracking reconstitution without PEG: 200 nM Mal3 or Mal3 construct, 20 nM Tea2, 150 nM Tip1 together on dynamic microtubules grown from surface-bound GMPCPP seeds; MRB80, 50 mM KCl, 14.5 µM tubulin, 0.5 µM rhodamine tubulin, 1 mM GTP, 2 mM ATP, 0.1% methylcellulose.

This note sets out measurements from paper PMC9859754, “Multivalent interactions facilitate motor-dependent protein accumulation at growing microtubule plus-ends” (Nature Cell Biology, 2022).

B1: Full-length Mal3:GFP (natural protein, S. pombe, UniProt Q10113 1-308, looked up)
chain: MSESRQELLAWINQVTSLGLTRIEDCGKGYAMIQIFDSIYQDIPLKKVNFECNNEYQYINNWKVLQQVFLKKGIDKVVDPERLSRCKMQDNLEFVQWAKRFWDQYYPGGDYDALARRGNRGPANTRVMNSSAGATGPSRRRQVSSGSSTPSMTKSSANNNNVSSTANTAAVLRAKQAQQQITSLETQLYEVNETMFGLERERDFYFNKLREIEILVQTHLTTSPMSMENMLERIQAILYSTEDGFELPPDQPADLTTALTDHDTNNVAEEAQMTDLKDSETQRVPSAPDFVHARLQSLEVDDDENITF
notes: Mal3 (EB homologue), Schizosaccharomyces pombe, full length; source: E. coli ER2566, purified (Talon resin, eluted with 3C protease, SEC); not shown: His8, N-terminal, cleaved
With B1, the binding result in assay [1] and in assay [2] was “binds” each time.

B2: Mal3-Alexa488 (natural protein, S. pombe, UniProt Q10113 1-308, looked up)
chain: MSESRQELLAWINQVTSLGLTRIEDCGKGYAMIQIFDSIYQDIPLKKVNFECNNEYQYINNWKVLQQVFLKKGIDKVVDPERLSRCKMQDNLEFVQWAKRFWDQYYPGGDYDALARRGNRGPANTRVMNSSAGATGPSRRRQVSSGSSTPSMTKSSANNNNVSSTANTAAVLRAKQAQQQITSLETQLYEVNETMFGLERERDFYFNKLREIEILVQTHLTTSPMSMENMLERIQAILYSTEDGFELPPDQPADLTTALTDHDTNNVAEEAQMTDLKDSETQRVPSAPDFVHARLQSLEVDDDENITF
modifications: Alexa Fluor 488 (TFP ester labelling, sites not stated)
notes: Mal3 (EB homologue), Schizosaccharomyces pombe, full length; source: E. coli ER2566, purified (Talon resin, eluted with 3C protease, SEC), labelled with Alexa Fluor 488 TFP ester; not shown: His8, N-terminal, cleaved
With B2, in assay [3], the binding result is reported as “binds”.
